# Reference: patent US20100272723A1 (Xencor, published 2010)
# T1: human CD19 (human, UniProt P15391 20-556)
# T1 construct: also called B-cell surface antigen B4; B-cell antigen CD19
# T1 sequence: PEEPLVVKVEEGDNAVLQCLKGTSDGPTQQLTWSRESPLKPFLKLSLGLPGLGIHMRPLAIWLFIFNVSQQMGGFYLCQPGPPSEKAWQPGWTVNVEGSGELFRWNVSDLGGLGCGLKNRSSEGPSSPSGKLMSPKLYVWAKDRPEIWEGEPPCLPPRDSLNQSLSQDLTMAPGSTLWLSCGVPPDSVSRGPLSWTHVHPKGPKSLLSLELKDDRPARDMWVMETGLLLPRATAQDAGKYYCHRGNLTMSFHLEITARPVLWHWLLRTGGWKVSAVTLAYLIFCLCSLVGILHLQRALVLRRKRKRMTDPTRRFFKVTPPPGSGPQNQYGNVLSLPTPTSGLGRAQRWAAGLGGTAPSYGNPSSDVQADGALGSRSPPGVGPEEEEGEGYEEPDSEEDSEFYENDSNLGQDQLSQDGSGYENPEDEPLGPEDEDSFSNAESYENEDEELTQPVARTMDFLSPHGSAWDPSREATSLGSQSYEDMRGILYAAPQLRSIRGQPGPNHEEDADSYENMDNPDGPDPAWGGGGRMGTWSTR
# T2: FcγRIIa - H131 (human, UniProt P12318)
# T2 construct: soluble His-tagged receptor; also called H131 FcγRIIa (FcγR-His)
# T2 sequence (receptor chain, looked up): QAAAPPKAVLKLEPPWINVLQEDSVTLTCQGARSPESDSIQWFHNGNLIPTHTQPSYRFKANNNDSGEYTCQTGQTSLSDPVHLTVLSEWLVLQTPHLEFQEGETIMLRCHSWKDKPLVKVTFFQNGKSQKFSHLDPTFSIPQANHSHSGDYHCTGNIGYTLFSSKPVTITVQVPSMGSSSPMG
# T3: FcγRIIa - R131 (human, UniProt P12318)
# T3 construct: soluble His-tagged receptor; also called R131 FcγRIIa (FcγR-His)
# T3 sequence (receptor chain, looked up): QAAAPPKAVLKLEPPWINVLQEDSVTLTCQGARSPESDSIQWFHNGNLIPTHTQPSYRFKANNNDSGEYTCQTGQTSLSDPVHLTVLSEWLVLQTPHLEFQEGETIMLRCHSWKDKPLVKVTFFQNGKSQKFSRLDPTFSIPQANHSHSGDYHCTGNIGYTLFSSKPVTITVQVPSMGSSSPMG
# T4: cynomolgus CD19 (cynomolgus (Macaca fascicularis), UniProt A0A2K5W8L9 20-557)
# T4 construct: whole, on cells; also called CD19 from cynomolgus monkey (Macaca fascicularis)
# T4 sequence: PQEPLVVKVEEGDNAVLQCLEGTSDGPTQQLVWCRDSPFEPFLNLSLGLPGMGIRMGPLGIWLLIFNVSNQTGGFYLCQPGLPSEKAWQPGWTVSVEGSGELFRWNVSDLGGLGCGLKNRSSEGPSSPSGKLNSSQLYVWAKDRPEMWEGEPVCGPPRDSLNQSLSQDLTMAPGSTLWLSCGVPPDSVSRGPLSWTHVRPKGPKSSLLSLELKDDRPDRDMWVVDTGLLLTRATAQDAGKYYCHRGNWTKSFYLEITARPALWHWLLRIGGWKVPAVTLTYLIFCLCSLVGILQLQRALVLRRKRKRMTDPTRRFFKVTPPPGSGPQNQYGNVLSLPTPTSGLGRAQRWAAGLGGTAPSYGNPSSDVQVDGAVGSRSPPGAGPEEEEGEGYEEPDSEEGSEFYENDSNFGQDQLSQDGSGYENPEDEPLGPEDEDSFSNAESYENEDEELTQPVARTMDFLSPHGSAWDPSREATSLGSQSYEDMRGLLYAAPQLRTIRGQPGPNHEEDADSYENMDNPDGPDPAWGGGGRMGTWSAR
# T5: rhesus CD19 (rhesus (Macaca mulatta), UniProt F7F486 20-557)
# T5 construct: whole, on cells; also called CD19 from rhesus monkey (Macaca mulatta)
# T5 sequence: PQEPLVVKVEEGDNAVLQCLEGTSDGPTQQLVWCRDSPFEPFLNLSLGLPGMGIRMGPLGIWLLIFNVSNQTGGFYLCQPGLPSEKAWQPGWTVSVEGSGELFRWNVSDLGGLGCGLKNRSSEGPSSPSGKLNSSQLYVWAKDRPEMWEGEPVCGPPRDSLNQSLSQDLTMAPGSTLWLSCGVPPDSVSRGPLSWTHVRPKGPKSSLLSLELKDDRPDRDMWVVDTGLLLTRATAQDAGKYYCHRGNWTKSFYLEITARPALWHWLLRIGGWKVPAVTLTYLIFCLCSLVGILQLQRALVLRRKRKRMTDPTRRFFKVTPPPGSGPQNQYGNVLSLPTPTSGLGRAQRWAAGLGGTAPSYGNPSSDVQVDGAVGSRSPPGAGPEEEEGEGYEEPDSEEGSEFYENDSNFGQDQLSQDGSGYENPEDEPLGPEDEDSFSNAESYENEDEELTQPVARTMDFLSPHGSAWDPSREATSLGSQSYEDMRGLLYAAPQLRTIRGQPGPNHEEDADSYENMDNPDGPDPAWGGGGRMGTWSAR
# Columns and labels:
# [1] = biological target: T1, human CD19; assay: flow cytometry, binding to CD19 on RS4;11 cells, MFI against Log[Ab], nM
# [2] = biological target: T2, FcγRIIa - H131; assay: Biacore SPR: IgG captured on protein A/G (CM5 chip), FcγR-His injected; KD from 1:1 group fit, plotted as -log(KD)
# Protocol: (§1) Briefly, protein A/G was coupled to a flow cell of a CM5 chip. IgG was first diluted to 25 nM and immobilized to protein A/G channel to ˜1000 RUs. FcγR-His was serially diluted and injected at […] for 2 min followed by dissociation for 3 min. To determine KD the resulting sensorgrams are “group-fitted” using the 1:1 interaction model available in BlAevaluation software.
# [3] = biological target: T3, FcγRIIa - R131; assay: as above
# Protocol: as §1
# [4] = biological target: T6, human V158 FcγRIIIa (FcγR-His) (human, UniProt P08637 17-208, limits assumed); assay: Biacore SPR; IgG captured on protein A/G, FcγR-His injected; 1:1 model
# T6 construct: Soluble His-tagged receptor injected as analyte in Biacore; not shown: His tag ('FcγR-His')
# Protocol: as §1
# [5] = biological target: T1, human CD19; assay: DELFIA time-resolved fluorometry competition on Raji cells; competitor tracer is Eu-labeled anti-CD19 (H0L0)
# Protocol: Affinities of enhanced effector function anti-CD19 variants were determined by using the DELFIA® system (PerkinElmer Life Sciences) which is based on Time-Resolved Fluorometry (TRF). […] The assay is essentially applied as a competition assay for screening anti-CD19 antibodies of different affinities.
# [6] = biological target: T7, human F158 FcγRIIIa (FcγR-His) (human, UniProt P08637 17-208, limits assumed); assay: Biacore SPR; IgG captured on protein A/G, FcγR-His injected; 1:1 model
# T7 construct: Soluble His-tagged receptor injected as analyte in Biacore; not shown: His tag ('FcγR-His')
# Protocol: as §1
# [7] = biological target: T6, human V158 FcγRIIIa (FcγR-His); assay: Biacore SPR; IgG captured on protein A/G, FcγR-His injected; reference is 4G7 IgG1 (WT)
# Protocol: as §1
# [8] = biological target: T4, cynomolgus CD19; assay: flow cytometry on monkey blood lymphocytes (method for the murine antibody not detailed)
# [9] = biological target: T5, rhesus CD19; assay: as above
# T6 sequence (P08637 17-208 F176V limits assumed): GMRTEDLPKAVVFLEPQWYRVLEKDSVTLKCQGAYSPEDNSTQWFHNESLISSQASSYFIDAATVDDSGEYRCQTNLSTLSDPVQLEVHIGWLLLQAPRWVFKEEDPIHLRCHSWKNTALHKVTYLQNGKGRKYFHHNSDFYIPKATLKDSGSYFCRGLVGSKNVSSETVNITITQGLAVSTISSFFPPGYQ
# T7 sequence (P08637 17-208 limits assumed): as the sequence (P08637 17-208 F176V limits assumed) above, with V160F counted along it
binding result [2],binding result [3],Kd [4] [nM],Binder,also measured
–,–,–,"4G7 H1L1 Hybrid S239D/I332E (antibody, human IgG1, kappa, V domains shown, also called H1L1 mAb) VH: EVQLVESGGGLVKPGGSLKLSCAASGYTFTSYVMHWVRQAPGKGLEWIGYINPYNDGTKYNEKFQGRVTISSDKSISTAYMELSSLRSEDTAMYYCARGTYYYGSRVFDYWGQGTLVTVSS VL: DIVMTQSPATLSLSPGERATLSCRSSKSLLNSNGNTYLYWFQQKPGQSPQLLIYRMSNLASGVPDRFSGSGSGTEFTLTISSLEPEDFAVYYCMQHLEYPFTFGAGTKLEIKR",EC50 (read off the curve) [1]: ~6 nM
binds,binds,~240,"4G7 IgG1 (chimeric: murine 4G7 H0/L0 variable regions, human IgG1 and kappa constant regions) (antibody, also called 4G7 IgG1 antibody; WT IgG1 antibody; copies: 2 + 2) heavy: not shown light: DIVMTQAAPSIPVTPGESVSISCRSSKSLLNSNGNTYLYWFLQRPGQSPQLLIYRMSNLASGVPDRFSGSGSGTAFTLRISRVEAEDVGVYYCMQHLEYPFTFGAGTKLELKRTVAAPSVFIFPPSDEQLKSGTASVVCLLNNFYPREAKVQWKVDNALQSGNSQESVTEQDSKDSTYSLSSTLTLSKADYEKHKVYACEVTHQGLSSPVTKSFNRGEC",–
binds,binds,~4.7,"4G7 Hybrid S239D/I332E (murine 4G7 H0/L0 variable regions, hybrid IgG1/IgG2 constant region with S239D/I332E) (antibody, also called effector function enhanced anti-CD19; enhanced effector function anti-CD19; copies: 2 + 2) heavy: EVQLQQSGPELIKPGASVKMSCKASGYTFTSYVMHWVKQKPGQGLEWIGYINPYNDGTKYNEKFKGKATLTSDKSSSTAYMELSSLTSEDSAVYYCARGTYYYGSRVFDYWGQGTTLTVSSASTKGPSVFPLAPSSKSTSGGTAALGCLVKDYFPEPVTVSWNSGALTSGVHTFPAVLQSSGLYSLSSVVTVPSSSLGTQTYICNVNHKPSNTKVDKKVEPKSCDKTHTCPPCPAPELLGGPDVFLFPPKPKDTLMISRTPEVTCVVVDVSHEDPEVQFNWYVDGVEVHNAKTKPREEQFNSTFRVVSVLTVVHQDWLNGKEYKCKVSNKALPAPEEKTISKTKGQPREPQVYTLPPSREEMTKNQVSLTCLVKGFYPSDIAVEWESNGQPENNYKTTPPMLDSDGSFFLYSKLTVDKSRWQQGNVFSCSVMHEALHNHYTQKSLSLSPGK light: DIVMTQAAPSIPVTPGESVSISCRSSKSLLNSNGNTYLYWFLQRPGQSPQLLIYRMSNLASGVPDRFSGSGSGTAFTLRISRVEAEDVGVYYCMQHLEYPFTFGAGTKLELKRTVAAPSVFIFPPSDEQLKSGTASVVCLLNNFYPREAKVQWKVDNALQSGNSQESVTEQDSKDSTYSLSSTLTLSKADYEKHKVYACEVTHQGLSSPVTKSFNRGEC",EC50 [5]: 1.2 nM; Kd [6]: ~16.7 nM; affinity enhancement relative to WT [7]: ~50 fold
–,–,–,"parental murine antibody of the anti-CD19 (4G7) (antibody, V domains shown, also called its parental murine antibody) VH: EVQLQQSGPELIKPGASVKMSCKASGYTFTSYVMHWVKQKPGQGLEWIGYINPYNDGTKYNEKFKGKATLTSDKSSSTAYMELSSLTSEDSAVYYCARGTYYYGSRVFDYWGQGTTLTVSS VL: DIVMTQAAPSIPVTPGESVSISCRSSKSLLNSNGNTYLYWFLQRPGQSPQLLIYRMSNLASGVPDRFSGSGSGTAFTLRISRVEAEDVGVYYCMQHLEYPFTFGAGTKLELK",binding result [8]: no binding; binding result [9]: no binding
